# Test results as given in patent US20220195067A1 (LAMKAP BIO BETA, published 2022).
# T1: human CEACAM5 on CEACAM5-expressing cancer cell lines (human, UniProt P06731 35-685)
# T1 construct: whole, on cells; also called CEACAM5 on SK-CO-1, MKN-45, HPAF-II, SNU-C1, Ls174T, LoVo cells
# T1 sequence (looked up): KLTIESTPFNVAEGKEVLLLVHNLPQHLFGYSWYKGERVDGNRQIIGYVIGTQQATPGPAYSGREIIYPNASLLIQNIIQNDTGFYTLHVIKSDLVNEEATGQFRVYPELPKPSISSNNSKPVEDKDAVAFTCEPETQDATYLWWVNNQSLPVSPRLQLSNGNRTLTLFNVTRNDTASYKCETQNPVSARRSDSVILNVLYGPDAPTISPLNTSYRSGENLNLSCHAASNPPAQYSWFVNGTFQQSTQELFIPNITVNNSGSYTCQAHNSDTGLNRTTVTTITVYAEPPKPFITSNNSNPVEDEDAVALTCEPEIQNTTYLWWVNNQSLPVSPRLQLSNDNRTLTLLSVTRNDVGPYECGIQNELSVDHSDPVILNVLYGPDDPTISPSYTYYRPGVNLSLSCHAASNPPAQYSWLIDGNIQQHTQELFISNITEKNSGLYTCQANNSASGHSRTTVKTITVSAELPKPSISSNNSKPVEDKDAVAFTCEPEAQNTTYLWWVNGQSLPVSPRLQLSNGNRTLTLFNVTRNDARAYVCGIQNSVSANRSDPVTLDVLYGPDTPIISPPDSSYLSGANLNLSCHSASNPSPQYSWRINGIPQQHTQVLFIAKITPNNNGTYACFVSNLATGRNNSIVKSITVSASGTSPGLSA
# T2: recombinant human CEACAM5 Extra Cellular Domain (ECD) soluble protein (human, UniProt P06731 35-685, biotinylated in the competition ELISA of Example 4)
# T2 construct: extracellular domain; also called rec. hCEACAM5; recombinant soluble human CEACAM5; not shown: C-terminal Avitag and hexa-histidine tag, or a human Fc or a mouse Fc region; which construct stood in each assay is not
# T2 sequence (looked up): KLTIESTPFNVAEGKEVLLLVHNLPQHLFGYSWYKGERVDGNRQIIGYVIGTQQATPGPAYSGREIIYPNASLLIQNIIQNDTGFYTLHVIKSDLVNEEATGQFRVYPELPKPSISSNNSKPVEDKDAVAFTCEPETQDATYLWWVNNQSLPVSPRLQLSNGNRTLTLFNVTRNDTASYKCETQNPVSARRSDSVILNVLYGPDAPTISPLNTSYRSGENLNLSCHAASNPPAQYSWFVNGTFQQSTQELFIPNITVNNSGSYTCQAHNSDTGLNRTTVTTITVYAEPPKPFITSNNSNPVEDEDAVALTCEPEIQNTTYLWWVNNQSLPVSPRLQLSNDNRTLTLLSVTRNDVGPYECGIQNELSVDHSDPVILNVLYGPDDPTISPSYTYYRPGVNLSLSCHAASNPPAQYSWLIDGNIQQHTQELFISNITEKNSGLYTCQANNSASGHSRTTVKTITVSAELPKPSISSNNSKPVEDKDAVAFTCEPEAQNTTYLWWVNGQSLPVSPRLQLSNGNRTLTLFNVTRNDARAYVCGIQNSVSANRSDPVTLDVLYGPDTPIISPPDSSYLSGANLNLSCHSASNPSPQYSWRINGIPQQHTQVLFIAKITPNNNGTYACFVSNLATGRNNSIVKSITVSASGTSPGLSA
# Legend:
# [1] = target: T3, human CD47 expressed at the surface of MKN-45 cells (human, UniProt Q08722 19-323); assay: CD47/SIRPα blocking assay on MKN-45 cells (carry CD47 and CEACAM5), imaging of bound SIRPα-mouseFc
# T3 construct: whole, on cells; MKN-45 cells express both CD47 and CEACAM5; also called hCD47
# T3 sequence (Q08722 19-323): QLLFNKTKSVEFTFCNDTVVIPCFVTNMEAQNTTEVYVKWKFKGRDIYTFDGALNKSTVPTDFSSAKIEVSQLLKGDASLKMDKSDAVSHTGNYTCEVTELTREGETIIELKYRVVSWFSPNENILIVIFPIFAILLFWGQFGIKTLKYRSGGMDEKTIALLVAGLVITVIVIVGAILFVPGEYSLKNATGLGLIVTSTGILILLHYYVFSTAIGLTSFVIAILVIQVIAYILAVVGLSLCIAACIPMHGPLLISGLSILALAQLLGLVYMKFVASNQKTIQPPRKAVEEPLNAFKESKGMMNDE
# From the text: The cell-based assay monitoring the interaction of soluble SIRPa with human CD47 expressed at the surface of MKN-45 cells as described below was used for the detection of the blocking activity. Concentration-response experiments with bispecific antibodies according to the invention allowed determination of inhibition curves (see FIG. 4) and of IC50 values (see Table 12).
# MKN-45 cancer cells, expressing both CD47 and CEACAM5, were stained with CFSE violet to allow the imaging system (CX5) to detect the cells. Briefly, 3'000 stained MKN-45 cells per well were seeded in a 384 optical well plate (Costar) and incubated for 50 minutes with increased concentrations of bispecific antibodies of the invention ([…] to 333 nM, in quadruplicates). Then, a fixed concentration of SIRPα-mouseFc premixed with anti-mouse IgG-Fc AF647 coupled antibody (Jackson Immunoresearch diluted 1:2000) was added at 50 ng/mL final. After an incubation of 3 hours and 30 minutes, images of the fluorescence signals emitted by the detected bound SIRPa on the plates were acquired with the imaging system (CX5, Thermo Fisher). Fluorescence signals (mean fluorescence intensity MFI) were plotted according to the dose range tested, and IC50 was calculated by the software (Prism, GraphPad).
# [2] = target: T1, human CEACAM5 on CEACAM5-expressing …; assay: flow cytometry on LoVo cells (carry CEACAM5 and CD47), PE anti-human IgG Fc
# Procedure: The binding of CD47×CEACAM5 bispecific antibodies was tested on CEACAM5-expressing human gastric adenocarcinoma cells (e.g. MKN-45), on CEACAM5-expressing human colorectal cancer cells (SK-CO-1, SNU-C1, Ls174T, and LoVo), and on CEACAM5-expressing pancreatic adenocarcinoma cells (HPAF-II).
# Cells were harvested, counted, checked for viability and resuspended at 3×10⁶ cells/ml in FACS buffer (PBS 2% BSA, 0.1% NaN3). 100 μl of the cell suspension was distributed in V-bottom 96-well plates (3×10⁵ cells/well). The supernatant was removed by centrifugation 3 minutes at 4° C., 1300 rpm. Increasing concentrations of the antibody according to the invention were then added into the wells and incubated for 15 minutes at 4° C. Cells were washed twice with cold FACS buffer and re-incubated for further 15 minutes at 4° C. with the PE (R-phycoerythrin)-conjugated mouse anti-human IgG Fc secondary antibody (SouthernBiotech, pre-diluted 1:100 in FACS buffer). Cells were washed twice with cold FACS buffer and resuspended in 300 μl FACS buffer with 1:15000-diluted SytoxBlue (Life Technologies). Fluorescence, specifically mean fluorescence […] (MFI), was determined using a Cytoflex […] flow cytometer. Binding curves and […] and Emax values were obtained and calculated using GraphPad Prism7 software.
# [3] = target: T2, recombinant human CEACAM5 Extra …; assay: BLI (Octet), from Table 2
# Procedure: The affinity of the anti-human CEACAM5 arm of the CD47×CEACAM5 bispecific antibodies of the invention for recombinant soluble human CEACAM5 was determined using the Bio-Layer Interferometry (BLI) technology. An OctetRED96 instrument and Protein A biosensors were used (Sartorius). The measurement was performed at 30° C. After hydration, pre-conditioning and a baseline step in Kinetic buffer (PBS, 0.002% Tween 20, 0.01% BSA, Kathon; Sartorius), biosensors were loaded for 5 min with the κλ body at 0.5 μg/mL in Kinetic buffer. Then, biosensors were dipped into a serial dilution of recombinant human CEACAM5 Extra Cellular Domain (ECD) soluble protein (produced in house), starting at 50 nM with a 2× dilution factor. The association and dissociation phases were monitored for 600 seconds each. Biosensors were regenerated using 10 mM glycine pH 1.7. A standard acquisition rate was applied (5.0 Hz, averaging by 20). Curves were processed with a reference well subtraction, a Y alignment on the baseline, without interstep correction. The affinity was measured applying a 1:1 global fitting model on the full association and dissociation steps. The binding affinity (KD) of the bispecific antibodies of the invention to recombinant human CD47 was determined by the same experimental procedure.
# The affinity of the anti-human CEACAM5 arms of the CD47×CEACAM5 bispecific antibodies of the invention for recombinant soluble human CEACAM3 was determined using the Bio-Layer Interferometry (BLI) technology and an OctetRED96 instrument. HIS1K biosensors (Sartorius), loaded with an anti-His tag antibody, were used to capture his-tagged recombinant huCEACAM3 (R&D Systems, #9868-CM). The measurement was performed at 30° C. After hydration, pre-conditioning and a baseline step in Kinetic buffer (PBS, 0.002% Tween 20, 0.01% BSA, Kathon; Sartorius), biosensors were loaded for 5 min with the recombinant huCEACAM3 at 5 μg/mL in Kinetic buffer. Then, biosensors were dipped into a serial dilution of k bodies, starting at 667 nM with a 2× dilution factor. The association and dissociation phases were monitored for 60 seconds and 120 seconds respectively. Biosensors were regenerated using 10 mM glycine pH 1.7.
IC50 [1],EC50 [2],Emax (MFI) [2],fold higher binding affinity (KD) compared to K2AC22 [3],fold higher binding affinity (lower KD) compared to K2AC22 [3],Binder
0.04 nM,16 nM,360000 MFI,46 fold,,"K2AC84 (bispecific antibody, human IgG1, kappa, lambda, Kappa-lambda body; also called CD47xCEACAM5 bispecific antibody K2AC84; AC84 (CEACAM5 arm)) heavy: not shown light 1: QSVLTQPPSVSAAPGQKVTISCSGSSSNIGIGLVSWYQQLPGTAPKLLIYNVNTRPSGIPDRFSGSKSGTSATLGITGLQTGDEADYYCGTWDFSYRVDFGGGTKLTVLGQPKAAPSVTLFPPSSEELQANKATLVCLISDFYPGAVTVAWKADSSPVKAGVETTTPSKQSNNKYAASSYLSLTPEQWKSHRSYSCQVTHEGSTVEKTVAPTECS light 2: not shown"
1.2 nM,44 nM,230000 MFI,,,"K2AC22 (bispecific antibody, human IgG1, kappa, lambda, Kappa-lambda body, human IgG1, one arm for CEACAM5 and one for CD47; comparison antibody from WO2019234576; also called state of the art bispecific CEAxCD47 antibody K2AC22; CD47xCEACAM5 bispecific antibody K2AC22) heavy: not shown light 1: QSVLTQPPSVSAAPGQKVTISCSGSSSNIANGIVSWYQQLPGTAPKLLIYFDNLRPSGIPDRFSGSKSGTSATLGITGLQTGDEADYYCGTWDFSYGIVFGGGTKLTVLGQPKAAPSVTLFPPSSEELQANKATLVCLISDFYPGAVTVAWKADSSPVKAGVETTTPSKQSNNKYAASSYLSLTPEQWKSHRSYSCQVTHEGSTVEKTVAPTECS light 2: not shown"
0.09 nM,18.7 nM,280000 MFI,,25 fold,"K2AC100 (bispecific antibody, human IgG1, kappa, lambda, Kappa-lambda body; also called CD47xCEACAM5 bispecific antibody K2AC100; AC100 (CEACAM5 arm)) heavy: not shown light 1: QSVLTQPPSVSAAPGQKVTISCSGSSSNIGYGLVSWYQQLPGTAPKLLIYNGNIRPSGIPDRFSGSKSGTSATLGITGLQTGDEADYYCGTWDFSYRVDFGGGTKLTVLGQPKAAPSVTLFPPSSEELQANKATLVCLISDFYPGAVTVAWKADSSPVKAGVETTTPSKQSNNKYAASSYLSLTPEQWKSHRSYSCQVTHEGSTVEKTVAPTECS light 2: not shown"
